Tests used:
[1] = target: T1, recombinant human TrkA protein (human, UniProt P04629-2 34-407, limits assumed); test: NGF-blocking ELISA on coated human TrkA, 100 nM btNGF; mAb 0.08 nM
Method: (§1) Each row of a 96-well high-binding clear-bottom microtiter plate (Microlon, #655061) was coated overnight at 4° C. with 100 μL/well of recombinant human TrkA protein, diluted to 2 μg/mL in phosphate buffered saline, pH 7.2 (PBS). The next day, the coating solution was removed, and the plate was blocked with 150 μL of Casein-PBS (Thermo Scientific, #37528) for 1 hour at 25° C. with gentle shaking. The plate was then washed three times with PBS supplemented with 0.05% Tween20 (PBST). A two-fold dilution series of exemplified antibodies, along with IgG4 and IgG1 isotype control antibodies, was generated starting at 20 nM in Casein-PBS. 100 μL of the each dilution series sample was added to a well for 30 min at 37° C. with gentle shaking. The plate was then washed three times with PBST. […] The plate was then washed three times with PBST. A 1:3500 dilution of a 1 mg/mL stock solution of streptavidin-HRP (Thermo Scientific, #21130) in Casein-PBS was prepared and […] was added to each well for 20 min at 37° C. with gentle shaking. The plate was washed three times with PBST. […] The reaction was stopped by addition of 100 μL of 1M H₃PO₄ to each well. The absorbance at 450 nm (Abs450) was measured using a SpectraMax 340PC plate reader (Molecular Devices).

[2] = target: T2, Human TrkA Extracellular Domain Isoform 2 (33-408) (human, UniProt P04629 33-414); test: SPR, mAb captured on Protein A chip, 37 C
T2 construct: SPR analyte; also called Human TrkA Isoform 2
Method: (§2) The binding kinetics and affinity of exemplified antibodies to human, cynomolgus monkey, rat, mouse, and rabbit TrkA are determined as described below using a surface plasmon resonance assay on a BIACORE™ 8K instrument (GE Healthcare). Two different isoforms of human TrkA (isoform 1 and isoform 2) are evaluated along with human TrkB and human TrkC. […] All FC2 on all eight channels are set to capture approximately 89 response units (RU) of antibody at a flow rate of 10 μL/min. The antibody sample is prepared at 1 μg/mL by dilution into the running buffer. […] Before the analysis cycle, the chip is regenerated with 3 injections of glycine (pH ˜1.5) at 100 μL/min for a contact time of 15 seconds on FC1 and FC2 in order to clean the surface of the chip.

[3] = target: T3, Human TrkA Extracellular Domain Isoform 1 (33-414) (human, UniProt P04629 33-414); test: SPR, mAb captured on Protein A chip, 37 C
T3 construct: SPR analyte; also called Human TrkA Isoform 1
Method: as §2

[4] = target: T1, recombinant human TrkA protein; test: NGF-blocking ELISA on coated human TrkA, 100 nM btNGF; mAb 0.16 nM
Method: as §1

[5] = target: T4, rat TrkA receptor expressed in transfected HEK293 cells (rat, UniProt P35739 33-799); test: cell-based or functional assay
[6] = target: T1, recombinant human TrkA protein; test: NGF-blocking ELISA on coated human TrkA, 100 nM btNGF; mAb 2.5 nM
Method: as §1

[7] = target: T1, recombinant human TrkA protein; test: NGF-blocking ELISA on coated human TrkA, 100 nM btNGF; mAb 0.04 nM
Method: as §1

[8] = target: T1, recombinant human TrkA protein; test: NGF-blocking ELISA on coated human TrkA, 100 nM btNGF; mAb 0.02 nM
Method: as §1

[9] = target: T1, recombinant human TrkA protein; test: NGF-blocking ELISA on coated human TrkA, 100 nM btNGF; mAb 0.31 (printed pM, two-fold series gives nM)
Method: as §1

[10] = target: T1, recombinant human TrkA protein; test: NGF-blocking ELISA on coated human TrkA, 100 nM btNGF; mAb 1.25 nM
Method: as §1

[11] = target: T1, recombinant human TrkA protein; test: NGF-blocking ELISA on coated human TrkA, 100 nM btNGF; mAb 10 nM
Method: as §1

[12] = target: T1, recombinant human TrkA protein; test: NGF-blocking ELISA on coated human TrkA, 100 nM btNGF; mAb 0.63 nM
Method: as §1

[13] = target: T1, recombinant human TrkA protein; test: NGF-blocking ELISA on coated human TrkA, 100 nM btNGF; mAb 20 nM
[14] = target: T4, rat TrkA receptor expressed in …; test: cell-based or functional assay; remark: listed apart in the source
[15] = target: T1, recombinant human TrkA protein; test: NGF-blocking ELISA on coated human TrkA, 100 nM btNGF
Method: as §1

[16] = target: TrkA on rat NEUROSCREEN-1 cells (pheochromocytoma PC12 subclone) (rat, UniProt P35739 33-799); test: cell-based or functional assay
[17] = target: T1, recombinant human TrkA protein; test: NGF-blocking ELISA on coated human TrkA, 100 nM btNGF; mAb 5 nM
Method: as §1

T2 sequence (P04629 other isoform, or with tags, fused parts or gaps): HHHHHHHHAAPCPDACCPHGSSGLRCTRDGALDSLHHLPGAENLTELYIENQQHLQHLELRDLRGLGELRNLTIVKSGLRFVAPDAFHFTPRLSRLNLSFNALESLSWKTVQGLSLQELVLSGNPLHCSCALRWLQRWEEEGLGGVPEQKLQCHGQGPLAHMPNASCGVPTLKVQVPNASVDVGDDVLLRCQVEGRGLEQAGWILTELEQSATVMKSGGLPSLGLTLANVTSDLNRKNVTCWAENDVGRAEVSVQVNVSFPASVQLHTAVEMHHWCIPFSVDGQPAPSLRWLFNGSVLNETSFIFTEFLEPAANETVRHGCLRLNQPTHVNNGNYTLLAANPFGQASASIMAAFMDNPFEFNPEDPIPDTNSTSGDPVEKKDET
T1 sequence (P04629 other isoform, or with tags, fused parts or gaps limits assumed): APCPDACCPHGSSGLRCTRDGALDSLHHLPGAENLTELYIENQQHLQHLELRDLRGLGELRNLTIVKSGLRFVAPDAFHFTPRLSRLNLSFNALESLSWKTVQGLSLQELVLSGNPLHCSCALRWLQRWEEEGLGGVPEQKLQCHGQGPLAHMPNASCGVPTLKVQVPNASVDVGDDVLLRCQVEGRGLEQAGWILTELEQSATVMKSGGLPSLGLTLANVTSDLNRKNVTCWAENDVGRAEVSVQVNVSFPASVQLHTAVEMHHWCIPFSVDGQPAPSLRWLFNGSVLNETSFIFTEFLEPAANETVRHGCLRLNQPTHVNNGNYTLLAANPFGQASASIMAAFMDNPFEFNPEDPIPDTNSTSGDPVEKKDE
T4 sequence (P35739 33-799): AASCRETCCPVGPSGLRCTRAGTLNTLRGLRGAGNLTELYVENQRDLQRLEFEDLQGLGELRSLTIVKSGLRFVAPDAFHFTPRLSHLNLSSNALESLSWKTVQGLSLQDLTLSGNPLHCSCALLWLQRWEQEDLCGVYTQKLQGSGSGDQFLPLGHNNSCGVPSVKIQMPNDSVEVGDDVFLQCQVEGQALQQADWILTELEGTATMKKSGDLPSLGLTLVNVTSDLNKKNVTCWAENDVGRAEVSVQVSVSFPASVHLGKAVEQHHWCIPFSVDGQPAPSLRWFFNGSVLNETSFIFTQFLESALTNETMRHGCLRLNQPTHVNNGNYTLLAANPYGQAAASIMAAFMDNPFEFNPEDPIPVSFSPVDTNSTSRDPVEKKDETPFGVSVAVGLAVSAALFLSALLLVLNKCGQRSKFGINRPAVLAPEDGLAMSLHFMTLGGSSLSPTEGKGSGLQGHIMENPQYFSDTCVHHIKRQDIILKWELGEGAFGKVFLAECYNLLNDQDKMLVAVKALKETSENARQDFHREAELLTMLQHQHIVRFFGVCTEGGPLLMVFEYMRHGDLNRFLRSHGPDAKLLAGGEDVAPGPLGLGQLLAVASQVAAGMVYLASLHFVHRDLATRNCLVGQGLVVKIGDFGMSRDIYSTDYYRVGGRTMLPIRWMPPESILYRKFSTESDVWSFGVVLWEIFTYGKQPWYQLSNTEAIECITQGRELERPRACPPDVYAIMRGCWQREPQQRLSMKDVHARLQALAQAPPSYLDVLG
Sequence of TrkA on rat NEUROSCREEN-1 cells (pheochromocytoma PC12 subclone) (P35739 33-799): as above
T3 sequence (P04629 other isoform, or with tags, fused parts or gaps): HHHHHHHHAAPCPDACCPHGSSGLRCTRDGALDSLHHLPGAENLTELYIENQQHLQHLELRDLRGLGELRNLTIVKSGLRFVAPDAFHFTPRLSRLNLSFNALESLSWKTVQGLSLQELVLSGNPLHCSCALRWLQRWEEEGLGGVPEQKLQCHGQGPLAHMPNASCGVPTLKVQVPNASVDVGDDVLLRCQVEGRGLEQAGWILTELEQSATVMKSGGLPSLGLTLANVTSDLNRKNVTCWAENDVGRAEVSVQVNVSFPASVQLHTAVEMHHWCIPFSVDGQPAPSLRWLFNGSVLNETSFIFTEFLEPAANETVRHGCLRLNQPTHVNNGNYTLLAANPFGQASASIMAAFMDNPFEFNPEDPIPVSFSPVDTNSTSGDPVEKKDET

Row | Absorbance 450 nm [1] | Kd [2] [nM] | koff [2] [s⁻¹] | kon [2] [M⁻¹ s⁻¹] | Kd [3] [nM] | koff [3] [s⁻¹] | kon [3] [M⁻¹ s⁻¹] | Absorbance 450 nm [4] | % Max Inhibition, pTrkA [5] [%] | IC50 (nM), pTrkA [5] [nM] | pTrkA counts per second, NGF +0.1 pM mAb [5] [counts per second] | pTrkA counts per second, NGF +1 pM mAb [5] [counts per second] | pTrkA counts per second, NGF +10 pM mAb [5] [counts per second] | pTrkA counts per second, NGF +100 pM mAb [5] [counts per second] | pTrkA counts per second, NGF +1 nM mAb [5] [counts per second] | pTrkA counts per second, NGF +10 nM mAb [5] [counts per second] | pTrkA counts per second, NGF +100 nM mAb [5] [counts per second] | pTrkA counts per second, NGF +1 uM mAb [5] [counts per second] | Absorbance 450 nm [6] | Absorbance 450 nm [7] | Binder | other results
1 | 0.96 | 4.9 | 0.0013 | 250000 | 4.4 | 0.0012 | 280000 | 0.89 | 40 | 0.68 | 4.53e+06 | 4.06e+06 | 4.52e+06 | 3.79e+06 | 3.16e+06 | 2.43e+06 | 2.59e+06 | 1.93e+06 | 0.16 | 1 | mAb D (antibody, human IgG1, kappa, Human IgG1EN/Kappa) heavy: EVQLVESGGGLVKPGGSLRLSCAASGFTFSGVSINWVRQAPGKGLEWVSSETTSSGTIYYADSVKGRFTISRDNAKNSLYLQMNSLRAEDTAVYYCARSYYYGMDVWGQGTTVTVSSASTKGPSVFPLAPSSKSTSGGTAALGCLVKDYFPEPVTVSWNSGALTSGVHTFPAVLQSSGLYSLSSVVTVPSSSLGTQTYICNVNHKPSNTKVDKRVEPKSCDKTHTCPPCPAPEAEGAPSVFLFPPKPKDTLMISRTPEVTCVVVDVSHEDPEVKFNWYVDGVEVHNAKTKPREEQYNSTYRVVSVLTVLHQDWLNGKEYKCKVSNKALPSSIEKTISKAKGQPREPQVYTLPPSREEMTKNQVSLTCLVKGFYPSDIAVEWESNGQPENNYKTTPPVLDSDGSFFLYSKLTVDKSRWQQGNVFSCSVMHEALHNHYTQKSLSLSPGK light: DIVMTQTPLSSPVTLGQPASISCRSSQSLVHRAGNTYLSWLQQRPGQPPRLLIYKISNRFSGVPDRFSGSGAGTDFTLKISRVEAEDVGVYYCMQARQFPLTFGGGTKVEIKRTVAAPSVFIFPPSDEQLKSGTASVVCLLNNFYPREAKVQWKVDNALQSGNSQESVTEQDSKDSTYSLSSTLTLSKADYEKHKVYACEVTHQGLSSPVTKSFNRGEC | Absorbance 450 nm [8]: 1.05; Absorbance 450 nm [9]: 0.67; Absorbance 450 nm [10]: 0.19; Absorbance 450 nm [11]: 0.17; Absorbance 450 nm [12]: 0.38; Absorbance 450 nm [13]: 0.19; % Max stimulation, pTrkA [14]: 77%; EC50 (nM), pTrkA [14]: 0.17 nM; pTrkA counts per second, 0.1 pM mAb, no NGF [14]: 571000 counts per second; pTrkA counts per second, 1 pM mAb, no NGF [14]: 585000 counts per second; pTrkA counts per second, 10 pM mAb, no NGF [14]: 627000 counts per second; pTrkA counts per second, 100 pM mAb, no NGF [14]: 1.25e+06 counts per second; pTrkA counts per second, 1 nM mAb, no NGF [14]: 2.39e+06 counts per second; pTrkA counts per second, 10 nM mAb, no NGF [14]: 2.97e+06 counts per second; pTrkA counts per second, 100 nM mAb, no NGF [14]: 2.85e+06 counts per second; pTrkA counts per second, 1 uM mAb, no NGF [14]: 2.05e+06 counts per second; IC50 [15]: 0.37 nM; % Max Stimulation of neurite outgrowth [16]: 17%; IC50, inhibition of NGF-induced neurite outgrowth [16]: 0.08 nM; Absorbance 450 nm [17]: 0.19
2 | 1.05 | 5.2 | 0.0014 | 260000 | 4.8 | 0.0013 | 270000 | 0.92 | 37 | 0.68 | 2.94e+06 | 3.38e+06 | 3.44e+06 | 3.7e+06 | 2.27e+06 | 2.23e+06 | 1.7e+06 | 1.88e+06 | 0.19 | 1.04 | mAb E (antibody, human IgG1, kappa, Human IgG1EN/Kappa) heavy: EVQLVESGGGLVKPGGSLRLSCAASGFTFSGVSINWVRQAPGKGLEWVSSETTSSGTIYYADSVKGRFTISRDNAKNSLYLQMNSLRAEDTAVYYCARSYYYGMDVWGQGTTVTVSSASTKGPSVFPLAPSSKSTSGGTAALGCLVKDYFPEPVTVSWNSGALTSGVHTFPAVLQSSGLYSLSSVVTVPSSSLGTQTYICNVNHKPSNTKVDKRVEPKSCDKTHTCPPCPAPEAEGAPSVFLFPPKPKDTLMISRTPEVTCVVVDVSHEDPEVKFNWYVDGVEVHNAKTKPREEQYNSTYRVVSVLTVLHQDWLNGKEYKCKVSNKALPSSIEKTISKAKGQPREPQVYTLPPSREEMTKNQVSLTCLVKGFYPSDIAVEWESNGQPENNYKTTPPVLDSDGSFFLYSKLTVDKSRWQQGNVFSCSVMHEALHNHYTQKSLSLSPGK light: DIVMTQTPLSSPVTLGQPASISCRSSQSLVHRQGNTYLSWLQQRPGQPPRLLIYKISNRFSGVPDRFSGSGAGTDFTLKISRVEAEDVGVYYCMQARQFPLTFGGGTKVEIKRTVAAPSVFIFPPSDEQLKSGTASVVCLLNNFYPREAKVQWKVDNALQSGNSQESVTEQDSKDSTYSLSSTLTLSKADYEKHKVYACEVTHQGLSSPVTKSFNRGEC | Absorbance 450 nm [8]: 1.1; Absorbance 450 nm [9]: 0.68; Absorbance 450 nm [10]: 0.25; Absorbance 450 nm [11]: 0.19; Absorbance 450 nm [12]: 0.41; Absorbance 450 nm [13]: 0.19; % Max stimulation, pTrkA [14]: 74%; EC50 (nM), pTrkA [14]: 0.3 nM; pTrkA counts per second, 0.1 pM mAb, no NGF [14]: 739000 counts per second; pTrkA counts per second, 1 pM mAb, no NGF [14]: 636000 counts per second; pTrkA counts per second, 10 pM mAb, no NGF [14]: 610000 counts per second; pTrkA counts per second, 100 pM mAb, no NGF [14]: 1.01e+06 counts per second; pTrkA counts per second, 1 nM mAb, no NGF [14]: 1.82e+06 counts per second; pTrkA counts per second, 10 nM mAb, no NGF [14]: 2.46e+06 counts per second; pTrkA counts per second, 100 nM mAb, no NGF [14]: 2.02e+06 counts per second; pTrkA counts per second, 1 uM mAb, no NGF [14]: 2.05e+06 counts per second; IC50 [15]: 0.35 nM; % Max Stimulation of neurite outgrowth [16]: 17%; IC50, inhibition of NGF-induced neurite outgrowth [16]: 0.07 nM; Absorbance 450 nm [17]: 0.21

Source: patent US20190263932A1 (Eli Lilly, published 2019)
